Source: publication PMC6884526 (2019)

Target: MBP-TrkB-454-821 (Rattus norvegicus (Rat), UniProt Q63604)
Assay: pull-down (MBP-TrkB on amylose resin, GST-ActI-SIPA1L2 prey, immunoblot)

Sequence of MBP-TrkB-454-821 (Q63604 454-821): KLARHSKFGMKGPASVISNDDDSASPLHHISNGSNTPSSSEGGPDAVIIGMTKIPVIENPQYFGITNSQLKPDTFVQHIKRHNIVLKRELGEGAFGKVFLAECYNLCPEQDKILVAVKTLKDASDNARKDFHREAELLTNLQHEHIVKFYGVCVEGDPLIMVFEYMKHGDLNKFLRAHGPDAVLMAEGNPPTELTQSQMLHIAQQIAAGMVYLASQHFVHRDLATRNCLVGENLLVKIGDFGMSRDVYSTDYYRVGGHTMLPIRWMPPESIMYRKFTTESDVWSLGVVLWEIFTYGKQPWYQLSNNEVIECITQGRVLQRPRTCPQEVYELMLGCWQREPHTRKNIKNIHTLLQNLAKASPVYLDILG

B1: GST-ActI-SIPA1L2-1-624 (protein)
chain: MSDPRPSQAEKHKLGRAASKFKDPSRAMQSDDYFARKFKAINGSMGPATLNTSSLSEGGGGGGGPANGTPAVPKMGVRARVSEWPPKKDCSKDLACKTLWESRSQSSYESATSIIQNGQNDQVDRQQEEQLDLDFVEAKYTIGDIFVHSPQRGLHPIRQRSNSDITISDIDTEDVLDQHAVNPNTGAALHREYGSTSSIDRQGLSGENVFAMLRGYRIESYDPKVTSSFGFPDFFPCDTAISPSLHAAAQISRGEFVRISGLDYMDGGLLMGRDRDKPFKRRLKSESVETSLFRKLRTVKSEHETFKFTSDLEEGRLDRGIRPWSCQRCFAHYDVQSILFNINEAMATRASVGKRKNITTGASAASQTPVPVGPAGGCESPLGSKEDLNAKENPDADEGDGKSNDLVLSCPYFRNETGGEGDRRIALSRANSASFSSGESCSFESSLSSHCTNAGVSVLEVPRENQPIHREKVKRYIIEHVDLGAYYYRKFFYGKEHQNYFGIDENLGPVAVSIRREKVEDPREKEGSQFNYRVAFRTSELTTLRGAILEDAVPSTARHGTARGLPLKEVLEYVIPELSIPCLRQAANSPKVPEQLLKLDEQGLSFQHKIGILYCKAGQSTEEE
  binding result: binds
